Here are results for three molecules from patent US20030045681A1 (published 2003).

In assay [1] the target is an irrelevant antigen (antigen of HyHEL-10, not given). In words: affinity chromatography of the conjugate on an antigen column.
The target of assay [2] is hen egg lysozyme (hen) (UniProt P00698). In words: radiolabeled scFv loaded onto an antigen column, flow-through and eluate counted.
The target in assay [3] is T1, recombinant ED-B domain of fibronectin (UniProt P02751 1266-1356, biotinylated (biotin disulfide N-hydroxysuccinimide ester) in ELISA and the ECL competition; Cy5 at the N-terminal extremity in the band-shift assay).
T1 construct: domain: ED-B; also called biotinylated ED-B; ED-B-biotin
T1 sequence (P02751 1266-1356 limits assumed): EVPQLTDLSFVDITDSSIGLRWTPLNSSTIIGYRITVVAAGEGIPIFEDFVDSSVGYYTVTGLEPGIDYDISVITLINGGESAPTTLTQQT
In words: SPR (BIAcore); the footnote calls this value not sufficiently reliable. Here is the method:
(§1) Meth., 206, 171-182) and affinity purified onto a CNBr-activated sepharose column (Pharmacia, Uppsala, Sweden), which had been coupled with 10 mg of ED-B containing 7B89 recombinant protein (Carnemolla et al. (1996). Int. J. Cancer, 68, 397-405). After loading, the column was washed with 50 ml of equilibration buffer (PBS, 1 mM EDTA, 0.5 M NaCl). Antibody fragments were then eluted with triethylamine 100 mM, immediately neutralised with 1M Hepes, pH 7, and dialysed against PBS. Affinity measurements by BIAcore were performed with purified antibodies as described (Neri et al. (1997). Nature Biotechnol., 15 1271-1275) [FIG. 4]. Band-shift analysis was performed as described (Neri et al. (1996). Nature Biotechnology, 14, 385-390), using recombinant ED-B fluorescently labeled at the N-terminal extremity (Carnemolla et al. (1996). Int. J. Cancer, 68, 397-405, Neri et al. (1997). Nature Biotechnol., 15 1271-1275) with the infrared fluorophore Cy5 (Amersham) [FIG. 4]. […] We therefore performed measurements of the kinetic dissociation constant koff by competition experiments (Neri et al. (1996), Trends in Biotechnol., 14, 465-470) [FIG. 4]. […] Streptavidin-coated dynabeads, diluted in Origen Assay Buffer (Deaver, D. R. (1995). Nature, 377, 758-760) were then added (20 μl, 1 mg/ml), and the resulting mixtures analysed with a ORIGEN Analyzer (IGEN Inc. Gaithersburg, Md. USA). […]
For orientation: SPR reads the build-up and loss of mass on a sensor chip optically.

Assay [4] addresses T1, recombinant ED-B domain of fibronectin. In words: competition of the scFv-(biotinylated ED-B) complex with excess unbiotinylated ED-B, electrochemiluminescent detection (Origen). Here is the method:
as §1, with “Int.” for “Meth., 206, 171-182) and affinity purified onto a CNBr-activated sepharose column (Pharmacia, Uppsala, Sweden), which had been coupled with 10 mg of ED-B containing 7B89 recombinant protein (Carnemolla et al. (1996). Int.”

Assay [5] has the same target. In words: SPR (BIAcore), purified scFv on ED-B. Here is the method:
as §1

The target is the same in assay [6]. In words: Kd = koff/kon, koff from ECL competition, kon from BIAcore. Here is the method:
as §1, with “Int.” for “Meth., 206, 171-182) and affinity purified onto a CNBr-activated sepharose column (Pharmacia, Uppsala, Sweden), which had been coupled with 10 mg of ED-B containing 7B89 recombinant protein (Carnemolla et al. (1996). Int.”

What is called koff is the rate constant with which the complex falls apart. As a reminder, the kon is the rate constant with which the complex forms. The term Kd denotes the equilibrium constant for the complex coming apart.

Chain of hen egg lysozyme (hen) (P00698 19-147): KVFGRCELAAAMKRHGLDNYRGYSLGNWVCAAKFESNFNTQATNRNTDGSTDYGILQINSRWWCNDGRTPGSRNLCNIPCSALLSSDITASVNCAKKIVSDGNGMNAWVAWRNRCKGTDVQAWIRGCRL

Molecule scFv(HyHEL-10)-Cy5 displayed an immunoreactivity in assay [1] of over 78%.
Take radioiodinated scFv(D1.3): in assay [2], the immunoreactivity was over 80%.

B1: scFv(L19) (scFv)
scFv: EVQLLESGGGLVQPGGSLRLSCAASGFTFSSFSMSWVRQAPGKGLEWVSSISGSSGTTYYADSVKGRFTISRDNSKNTLYLQMNSLRAEDTAVYYCAKPFPYFDYWGQGTLVTVSSGDGSSGGSGGASTGEIVLTQSPGTLSLSPGERATLSCRASQSVSSSYLAWYQQKPGQAPRLLIYYASSRATGIPDRFSGSGSGTDFTLTISRLEPEDFAVYYCQQTGRIPPTFGQGTKVEIKDDDSDDDYKDDDDKHHHHHH
notes: also called antibody L19; anti-ED-B L19
With B1, the koff in assay [3] turned out to be 9.6e-05 s⁻¹; in assay [4] it was 6e-06 s⁻¹. In assay [5], the kon was determined as 110000 M⁻¹ s⁻¹. Also, the equilibrium dissociation constant (Kd) in assay [6] was 0.054 nM.
